In the supplement of paper PMC7877785:
± gives the uncertainty stated by the source.

Experiment: self-splicing fitness, log relative to wild type (ln ratio); higher = more splicing; Tetrahymena group I intron in knt gene, E. coli kanamycin selection, DiMSum; sequences stand for … in CUCUCU…GGAGGGAAAAGUUAUCAGGCAUGCACCUGGUAGCUAGUCUUUAAACCAAUAGAUUGCAUCGGUUUAAAAGGCAAGACCGUCAAAUUGCGGGAAAGGGGUCAACAGCCGUUCAGUACCAAGUCUCAGGGGAAACUUUGAGAUGGCCUUGCAAAGGGUAUGGUAAUAAGCUGACGGACAUGGUCCUAACCACGCAGCCAAGUCCUAAGUCAACAGAUCUUCUGUUGAUAUGGAUGCAGUUCACAGACUAAAUGUCGGUCGGGGAAGAUGUAUUCUUCUCAUAAGAUAUAGUCGGACCUCUCCUUAAUGGGAGCUAGCGGAUGAAGUGAUGCAACACUGGAGCCGCUGGGAACUAAUUUGUAUGCGAAAGUAUAUUGAUUAGUUUUGGAGUACUCGUGGUCG
How it was run: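 The eight P1ex-region nucleotides of an intron in the knt kanamycin-resistance gene on pET-22b(+) were all randomised and the library put into E. coli BL21(DE3). Six replicate transformations were grown overnight at 37°C or 30°C on LB agar with or without 25 μg/mL kanamycin, together with 100 μg/mL carbenicillin, 50 μM IPTG and 0.2% rhamnose. Colonies were pooled and amplicon-sequenced on an Illumina HiSeq 2500. Fitness from DiMSum is the error-weighted combination of wild-type-normalised replicate fold changes, kanamycin over none.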

Sequence	self-splicing fitness (ln) (30 °C)	self-splicing fitness (ln) (37 °C)
UCCAAGCAAUAUUACGGUAC	-4.3 ± 0.23	-2.81 ± 0.24
UCCAAGCAAUAUUACGGUCA	-0.259 ± 0.06	0.0746 ± 0.065
UCCAAGCAAUAUUACGUGAA	-0.666 ± 0.074	0.295 ± 0.1
UCCAAGCAAUAUUACGUGAU	-3.53 ± 0.12	-1.31 ± 0.097
UCCAAGCAAUAUUACGUGCG	-3.59 ± 0.15	-1.68 ± 0.13
UCCAAGCAAUAUUACGUGUU	-3.46 ± 0.15	-1.85 ± 0.13
UCCAAGCAAUAUUACGUUGC	-3.7 ± 0.17	-2.41 ± 0.19
UCCCAGCAAUAUUACGACCU	-2.88 ± 0.27	-1.69 ± 0.35
UCCCAGCAAUAUUACGACGC	-2.81 ± 0.19	-0.519 ± 0.23
UCCCAGCAAUAUUACGACUU	-3.04 ± 0.17	-1.79 ± 0.14
UCCCAGCAAUAUUACGAUGG	-3.71 ± 0.13	-2.31 ± 0.15
UCCCAGCAAUAUUACGCAAA	-2.54 ± 0.18	-0.641 ± 0.14
UCCCAGCAAUAUUACGCAAC	-3.01 ± 0.37	-2.19 ± 0.37
UCCCAGCAAUAUUACGCUCG	-2.99 ± 0.18	-2.15 ± 0.29
UCCCAGCAAUAUUACGGCAG	-4.36 ± 0.29	-2.58 ± 0.2
UCCCAGCAAUAUUACGGCGU	-0.605 ± 0.057	0.275 ± 0.071
UCCCAGCAAUAUUACGGGCU	-1.71 ± 0.066	-1.32 ± 0.087
UCCCAGCAAUAUUACGGGGA	-3.53 ± 0.17	-2.43 ± 0.16
UCCCAGCAAUAUUACGGGGC	-2.72 ± 0.17	-2.84 ± 0.22
UCCCAGCAAUAUUACGGUAA	0.0812 ± 0.099	0.262 ± 0.1
UCCCAGCAAUAUUACGGUGG	-3.65 ± 0.15	-2.5 ± 0.15
UCCCAGCAAUAUUACGUGAA	0.116 ± 0.045	0.582 ± 0.067
UCCCAGCAAUAUUACGUGGC	-3.54 ± 0.15	-2.92 ± 0.23
UCCCAGCAAUAUUACGUUAA	-1.89 ± 0.093	-0.696 ± 0.085
UCCCAGCAAUAUUACGUUAU	-4.35 ± 0.18	-2.47 ± 0.17
UCCCAGCAAUAUUACGUUCA	-0.991 ± 0.093	-0.824 ± 0.1

Sequence	self-splicing fitness (ln) (30 °C)	self-splicing fitness (ln) (37 °C)
UCCGAGCAAUAUUACGAGGA	-3.04 ± 0.25	-2.5 ± 0.29
UCCGAGCAAUAUUACGAUGA	-0.4 ± 0.068	-0.0382 ± 0.079
UCCGAGCAAUAUUACGAUGC	-1.93 ± 0.19	–
UCCGAGCAAUAUUACGCCCU	-2.74 ± 0.31	–
UCCGAGCAAUAUUACGCGCC	-2.88 ± 0.4	–
UCCGAGCAAUAUUACGGAAG	-3.67 ± 0.44	-1.82 ± 0.28
UCCGAGCAAUAUUACGGAGC	-3.17 ± 0.25	-2.67 ± 0.26
UCCGAGCAAUAUUACGGAUA	-2.34 ± 0.25	-2.61 ± 0.19
UCCGAGCAAUAUUACGGAUC	–	-2.41 ± 0.39
UCCGAGCAAUAUUACGGCGU	-1.17 ± 0.081	-0.438 ± 0.11
UCCGAGCAAUAUUACGGGCU	-4.07 ± 0.24	-2.97 ± 0.2
UCCGAGCAAUAUUACGGUAG	-3.6 ± 0.14	-2.43 ± 0.15
UCCGAGCAAUAUUACGGUUU	-3.42 ± 0.22	-1.02 ± 0.14
UCCGAGCAAUAUUACGUAAG	-4.92 ± 0.38	-2.13 ± 0.25
UCCGAGCAAUAUUACGUCAU	-3.59 ± 0.27	-2.75 ± 0.44
UCCGAGCAAUAUUACGUGAG	-2.83 ± 0.19	-2.43 ± 0.23
UCCGAGCAAUAUUACGUUGU	-2.89 ± 0.14	-2.96 ± 0.22
UCCUAGCAAUAUUACGAAUC	–	-2.17 ± 0.29
UCCUAGCAAUAUUACGACCG	-3.3 ± 0.28	-3.65 ± 0.34
UCCUAGCAAUAUUACGACUU	-3.74 ± 0.46	-2.74 ± 0.3
UCCUAGCAAUAUUACGAGAA	-1.36 ± 0.25	-0.965 ± 0.23
UCCUAGCAAUAUUACGAGAC	-2.09 ± 0.33	-1.71 ± 0.4
UCCUAGCAAUAUUACGAGGU	-3.53 ± 0.19	-1.45 ± 0.13
UCCUAGCAAUAUUACGAGUC	-2.71 ± 0.31	–
UCCUAGCAAUAUUACGAUCA	-2.01 ± 0.1	-1.36 ± 0.096
UCCUAGCAAUAUUACGAUGA	0.139 ± 0.083	0.437 ± 0.098

Sequence	self-splicing fitness (ln) (30 °C)	self-splicing fitness (ln) (37 °C)
UCCUAGCAAUAUUACGCAGC	–	-0.949 ± 0.4
UCCUAGCAAUAUUACGCAUG	-2.52 ± 0.28	–
UCCUAGCAAUAUUACGCGAU	-3.18 ± 0.28	-2.65 ± 0.5
UCCUAGCAAUAUUACGCGCG	-4.03 ± 0.29	-2.45 ± 0.31
UCCUAGCAAUAUUACGCGUA	-2.95 ± 0.23	-1.53 ± 0.14
UCCUAGCAAUAUUACGCUGG	-3.84 ± 0.42	-2.29 ± 0.32
UCCUAGCAAUAUUACGGAGG	-2.63 ± 0.17	-1.73 ± 0.2
UCCUAGCAAUAUUACGGAUC	-3.39 ± 0.23	-2.53 ± 0.26
UCCUAGCAAUAUUACGGAUU	-4.22 ± 0.23	-2.36 ± 0.21
UCCUAGCAAUAUUACGGCGG	-3.94 ± 0.27	-2.92 ± 0.2
UCCUAGCAAUAUUACGGGCC	-2.79 ± 0.12	-1.17 ± 0.11
UCCUAGCAAUAUUACGGUGG	-3.31 ± 0.15	-2.32 ± 0.13
UCCUAGCAAUAUUACGUAAC	-3.53 ± 0.24	-2.07 ± 0.27
UCCUAGCAAUAUUACGUAGU	-2.62 ± 0.15	-1.29 ± 0.18
UCCUAGCAAUAUUACGUAUG	-4.13 ± 0.3	-2.62 ± 0.26
UCCUAGCAAUAUUACGUCAA	–	-1.52 ± 0.39
UCCUAGCAAUAUUACGUCGC	-4.08 ± 0.42	-2.58 ± 0.36
UCGAAGCAAUAUUACGACCU	-1.51 ± 0.16	-1.1 ± 0.18
UCGAAGCAAUAUUACGACUC	–	0.412 ± 0.47
UCGAAGCAAUAUUACGAUAG	-2.95 ± 0.25	-1.14 ± 0.18
UCGAAGCAAUAUUACGAUGG	-0.763 ± 0.079	-0.538 ± 0.13
UCGAAGCAAUAUUACGCAAU	–	-2.03 ± 0.27
UCGAAGCAAUAUUACGCGAG	-1.47 ± 0.074	-0.905 ± 0.1
UCGAAGCAAUAUUACGCGGC	-3.35 ± 0.32	-2.87 ± 0.36
UCGAAGCAAUAUUACGGAAA	-1.95 ± 0.49	-0.855 ± 0.25
UCGAAGCAAUAUUACGGUCA	-1.83 ± 0.11	-0.525 ± 0.12
